# Values of other authors, collected in paper PMC13507575.
# Target: IL-1β (Homo sapiens) (UniProt P01584)
substance,measurement,value
canakinumab,Kd,4.1 nM
